Our source for the collision cross section values is the supplement of paper PMC10598134.

± gives the standard deviation.

The nature of the data set: collision cross section of modified peptide (TIMS, N2, iRT-aligned); higher = larger / more extended gas-phase ion. The method, boiled down: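 On a timsTOF Pro/HT (dda-PASEF, nitrogen, ~2.4 mbar), synthetic peptide pools were analysed after a 120-min nanoflow C18 separation at 60 °C and identified in MaxQuant. Three reference ions served for 1/K0 calibration, with run-wise alignment to the median iRT peptide deviation. Collision cross section comes from the Mason-Schamp equation, using the most abundant feature per charge state averaged over 1–3 technical replicates.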

Setting [1] is: charge state: 2, modification: Hydroxyproline.
The mark [2] stands for this setting: charge state: 2, modification: Nitro (Y).
The mark [3] stands for this setting: charge state: 2, modification: Propionyl.
The mark [4] stands for this setting: charge state: 2, modification: Trimethyl (K).
[5] abbreviates: charge state: 3, modification: Trimethyl (K).
Where [6] appears, read: charge state: 2, modification: Citrullination (R).
The mark [7] stands for this setting: charge state: 3, modification: Citrullination (R).
The mark [8] stands for this setting: charge state: 2, modification: Formyl.
[9] abbreviates: charge state: 3, modification: Hydroxyproline.

In turn, “GDQGEPGPSGNPGK [_GDQGEPGPSGNP(Hydroxyproline)GK_]” had a collision cross section under setting [1] of 343.56 ± 0.79 Å².

As for “IINEPTAAAIAYGLDKK [_IINEPTAAAIAYGLDK(Butyryl)K_]”, the collision cross section by setting is: (charge state: 2, modification: Butyryl) 465.29 ± 0.5 Å²; (charge state: 3, modification: Butyryl) 559.62 ± 0.45 Å². In the case of VVDLLAPYAK [_VVDLLAPY(Nitro (Y))AK_], under setting [2], the collision cross section was 371.07 ± 0.55 Å². Take “LQEKVESAQSEQK [_LQEK(Dimethyl (K))VESAQSEQK_]”: the collision cross section is given as 412.95 ± 1.6 Å² (charge state: 2, modification: Dimethyl (K)) and 455.71 ± 2.1 Å² (charge state: 3, modification: Dimethyl (K)). The sequence “VLTANSNPSSPSAAKR [_VLTANSNPSSPSAAK(Propionyl)R_]” registered a collision cross section under setting [3] of 429.75 ± 0.38 Å² and a collision cross section (charge state: 3, modification: Propionyl) of 528.16 ± 0.65 Å². For “LTSLNVKYNNDK [_LTSLNVK(hydroxyisobutyryl)YNNDK_]”, the collision cross section (charge state: 2, modification: hydroxyisobutyryl) is 415.97 ± 0.31 Å².

The sequence “LLFSNTAAQKLR [_LLFSNTAAQK(Trimethyl (K))LR_]” came in with a collision cross section under setting [4] of 428.25 ± 0.6 Å² and a collision cross section under setting [5] of 480.65 ± 2.4 Å².

“GERGPPGPPGR [_GERGPP(Hydroxyproline)GPPGR_]”: under setting [1], the collision cross section was 333.05 Å². Regarding “GRGYFEHR [_GR(Citrullination (R))GYFEHR_]”, the collision cross section under setting [6] came to 339.49 ± 1.6 Å² and the collision cross section under setting [7] is 411.67 ± 1.3 Å². Turning to “DNNNSNNRGSYNR [_DNNNSNNR(Methyl (R))GSYNR_]”, for the setting “charge state: 3, modification: Methyl (R)”, the collision cross section stood at 460.8 ± 2.4 Å². The sequence “GRGTGEAEEEYVGPR [_GR(Citrullination (R))GTGEAEEEYVGPR_]” displayed a collision cross section under setting [6] of 411.48 ± 0.42 Å² and a collision cross section under setting [7] of 487 ± 5.6 Å².

Regarding “TQDQISNIKYHEEFEK [_TQDQISNIK(GlyGly (K))YHEEFEK_]”, the collision cross section (charge state: 3, modification: GlyGly (K)) stood at 559.05 ± 0.57 Å². The sequence “IQNGAQGIRFIYTR [_IQNGAQGIR(Citrullination (R))FIYTR_]” had a collision cross section under setting [7] of 506.23 Å². For the sequence LEEVTGKLQVAR [_LEEVTGK(Formyl)LQVAR_], the collision cross section under setting [8] amounted to 388.92 ± 0.55 Å². For the sequence “GNDISSGTVLSDYVGSGPPKK [_GNDISSGTVLSDY(Nitro (Y))VGSGPPKK_]”, the collision cross section (charge state: 3, modification: Nitro (Y)) was found to be 549.52 Å². Under setting [6], “GRGGPGPAQR [_GR(Citrullination (R))GGPGPAQR_]” displayed a collision cross section of 319.56 ± 0.91 Å². “SGGYGGSRDYYSSR [_SGGYGGSR(Citrullination (R))DYYSSR_]”: the collision cross section under setting [6] was determined as 397.63 ± 1.4 Å². SGFGKFER [_SGFGK(Trimethyl (K))FER_] had a collision cross section under setting [4] of 339.14 Å².

In turn, “LGGDLGTYVINK [_LGGDLGTY(Nitro (Y))VINK_]” gave a collision cross section under setting [2] of 371.97 ± 0.72 Å². For “ITESVAETAQTIKK [_ITESVAETAQTIK(Formyl)K_]”, the collision cross section by setting is: under setting [8], 415.52 ± 0.56 Å²; (charge state: 3, modification: Formyl) 507.5 ± 1.5 Å².

Turning to “GAPGGRGAQLSVPSPAR [_GAPGGR(Citrullination (R))GAQLSVPSPAR_]”, the collision cross section under setting [6] is given as 412.31 ± 0.55 Å². Regarding “ALASIDSKLNQAK [_ALASIDSK(Trimethyl (K))LNQAK_]”, the collision cross section was 417.47 ± 0.6 Å² under setting [4] and 444.8 ± 1.8 Å² under setting [5]. For the setting “charge state: 3, modification: Biotin”, “AAQASDLEKIHLDEK [_AAQASDLEK(Biotin)IHLDEK_]” returned a collision cross section of 515.52 Å². Turning to “GTITVSAQELKDNR [_GTITVSAQELK(Propionyl)DNR_]”, the collision cross section under setting [3] is 415.55 Å².

In the case of “GPPGPPGRPGNSGIR [_GPPGPPGRP(Hydroxyproline)GNSGIR_]”, the collision cross section under setting [9] came out at 429.49 ± 1.3 Å². As to “GFGRGGAESHTFK [_GFGR(Citrullination (R))GGAESHTFK_]”, the collision cross section reads like this: under setting [6], 413.94 ± 1 Å²; under setting [7], 465.74 ± 2.2 Å². Sequence “GDAGEPGRPGSPGK [_GDAGEP(Hydroxyproline)GRPGSPGK_]” came in with a collision cross section under setting [9] of 446.53 ± 1.3 Å².
